The results in this text go back to patent US11667697 (VANDERBILT UNIVERSITY, dated 2023).

The target of assay [1] is T1, VACV B5 protein (vaccinia virus, UniProt Q01227 20-275). Put plainly: cell-based or functional assay.
Assay [2] deals with T1, VACV B5 protein. The experiment in a line: purified antigen ELISA. In general terms: In an ELISA, binding on a coated surface is turned into a signal by an enzyme label.
Assay [3] addresses T1, VACV B5 protein. Put plainly: lysate ELISA.
The target in assay [4] is T2, VACV D8 protein (vaccinia virus, UniProt P04195 1-261).
T2 sequence: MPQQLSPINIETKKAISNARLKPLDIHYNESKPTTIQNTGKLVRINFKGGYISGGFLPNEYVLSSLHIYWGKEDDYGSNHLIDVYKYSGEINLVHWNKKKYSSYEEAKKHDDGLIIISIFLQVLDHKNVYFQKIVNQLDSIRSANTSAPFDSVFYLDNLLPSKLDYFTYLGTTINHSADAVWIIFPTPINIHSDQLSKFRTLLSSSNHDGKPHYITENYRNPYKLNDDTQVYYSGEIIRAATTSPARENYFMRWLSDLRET
The experiment in a line: cell-based or functional assay.

The target in assay [5] is T2, VACV D8 protein. The experiment in a line: purified antigen ELISA.
The target of assay [6] is T2, VACV D8 protein. Put plainly: lysate ELISA.
For assay [7], the target named is T3, VACV L1 protein (vaccinia virus, UniProt P07612 1-185).
T3 sequence: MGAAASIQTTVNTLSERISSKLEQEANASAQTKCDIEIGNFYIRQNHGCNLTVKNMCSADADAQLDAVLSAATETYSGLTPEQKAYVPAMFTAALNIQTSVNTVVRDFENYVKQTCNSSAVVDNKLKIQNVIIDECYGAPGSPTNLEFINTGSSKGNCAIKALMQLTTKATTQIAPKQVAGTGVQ
Put plainly: cell-based or functional assay.

Assay [8] concerns the target T3, VACV L1 protein. Put plainly: purified antigen ELISA.
Assay [9] has as its target T4, VACV A33 protein (vaccinia virus, UniProt P68617 58-185). Put plainly: purified antigen ELISA.
Assay [10] has as its target T4, VACV A33 protein. The experiment in a line: lysate ELISA.
In assay [11] the target is T4, VACV A33 protein. Put plainly: cell-based or functional assay.
For another assay, the target named is T5, VACV H3 protein (vaccinia virus, UniProt P07240 1-278).
T5 sequence: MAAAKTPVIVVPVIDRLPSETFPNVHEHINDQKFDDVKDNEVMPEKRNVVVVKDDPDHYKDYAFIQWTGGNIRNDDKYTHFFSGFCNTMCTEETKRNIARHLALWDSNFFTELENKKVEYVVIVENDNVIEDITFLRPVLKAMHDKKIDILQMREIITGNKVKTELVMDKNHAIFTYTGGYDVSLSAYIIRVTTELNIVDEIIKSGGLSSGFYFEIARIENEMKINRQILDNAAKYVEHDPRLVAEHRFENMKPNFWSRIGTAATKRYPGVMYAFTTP
The experiment in a line: lysate ELISA.

B1: MPXV-25 (antibody, V domains shown)
V domain 1: QVQLVESGGGVVQPGRSLKISCAASGFTFSDSGLHWVRQAPGKGLECVAFIWYDGSTKYYADSVKGRFTISRDNSRNTLYLQMKSLRAEDTAVYYCARELGYCSGGTCYSMGAFDIWGQGTLVTVSQ
V domain 2: QSVLTQPASVSGSPGQSITISCTGTSSDVGSYNLVSWYQQHPGKAPKLMIYEVSKRPSGVSNRFSGSKSDNTASLTISGLQAEDEADYYCCSYVGSSTSVFGGGTQVTVL
notes: human IgG1, anti-B5
What is called EC50 is the concentration that produces a half-maximal response. A higher EC50 goes with weaker potency. As for B1, in the assay with VACV B5 protein [1], the “PRNT Emax, VACV EV+C'” value is 77% and the “PRNT IC50, VACV EV+C'” value stood at 0.02 µg/mL. In the assay with VACV B5 protein [2], the EC50 came out at 0.19 µg/mL. In addition, the concentration for a half-maximal effect (EC50) with VACV B5 protein [3] turned out to be 0.066 µg/mL.

B2: VACV-249 (antibody, V domains shown)
VH: QVQLVESGPGLVKPSQTLSLTCTVSGGSISRGIYYWSWIRQPAGKGLEWIGRIYTSGSTNYNPSLKSRVTISVDTSKNQFSLKLSSVTAADTAVYYCARDGWYGWYLDLWGRGTLVTVSS
VL: EIVMTQSPATLSVSPGERATLSCRASQSVSSDLAWYQQKPGQAPRLLIYGASTRATGIPARFSGSGSGTEFTLTISSLQSEDFAVYYCQQYNNWPGTFGGGTKVDIK
notes: human IgG1, anti-D8
Consider B2, for which the “PRNT Emax, VACV MV+C'” value with VACV D8 protein [4] was 70%. Moreover, in the assay with VACV D8 protein [4], the “PRNT IC50, VACV MV+C'” value was 0.2 µg/mL. Besides, the EC50 turned out to be 2.8 µg/mL in the assay with VACV D8 protein [5] and 0.3 µg/mL with VACV D8 protein [6].

B3: MPXV-26 (antibody, V domains shown)
VH: QVQLVQSGGGLIQPGGSLRLSCVVSGFNVATNYMSWVRQAPGKGLEWVSVIYSGGSTYYADSVKGRFTISRDNSKNTVFLQMNSLRPEDTAAYYCAKGGGLGLDYWGQGTLVTVSS
VL: QSALTQPPSASGSPGQSVTITCTGSSSDVGGYNYVSWYQQHPGKAPKVVIYEVNKRPSGVPHRFSGSKSGNTASLTVSGLQAEDEADYYCSSYAGTETVAFGGGTKLTVL
notes: human IgG1, anti-L1
With B3, in the assay with VACV L1 protein [7], the “PRNT Emax, VACV MV” value is 95%; the “PRNT Emax, VACV MV+C'” value turned out to be 80%; the “PRNT IC50, VACV MV” value was determined as 0.3 µg/mL; the “PRNT IC50, VACV MV+C'” value came to 0.7 µg/mL. The same molecule yielded an EC50 with VACV L1 protein [8] of 0.05 µg/mL.

B4: VACV-33 (antibody, V domains shown)
VH: QLQLQESGPGLVKPSETLSLTCTVSGGSISSGGYYWGWIRQPPGKGLEWIASIYYSGSTYYNPSLKSRVTISVDTSKTQFSLKLSSVTAADTAVYYCARQSSSTGGFHYWGQGTLVTVSS
VL: QSVLTQPPSVSGAPGQRVTISCTGSSSNIGAGYDVHWYQHLPGTAPKLLIYGNSNRPSGVPDRFSGSKSGTSASLAITGLQAEDEANYYCQSYDSSLSGREVFGGGTQLTVL
notes: human IgG1, anti-L1
In the case of B4, in the assay with VACV L1 protein [7], the “PRNT Emax, VACV MV” value came to 56%; the “PRNT Emax, VACV MV+C'” value is 71%; the “PRNT IC50, VACV MV” value was 0.3 µg/mL; the “PRNT IC50, VACV MV+C'” value turned out to be 0.7 µg/mL. The same molecule came in with an EC50 with VACV L1 protein [8] of 0.02 µg/mL.

B5: MPXV-2 (antibody, V domains shown)
VH: QVQLVQSGAEVKKPGASVKVSCKTSGYTFTTYAVHWVRQAPGQRLEWMGWINPGDGDTRYAQKFQDRVTISSDTSATTVYMELSSLRSEDTAVYFCARPRASLLRYFDWLFEQWGQETLVTVSS
VL: EIVLTQSPGTLSLSPGDRATLSCGASQSIHHNYVAWYQQRPGQAPRLLIFGASSRATGIPDRFTGSGSGTEFTLTINRLEPEDFAVYYCQQYGNSVPYSFGQGTKVDIK
notes: human IgG1, anti-B5
Turning to B5, the “PRNT Emax, VACV EV+C'” value with VACV B5 protein [1] turned out to be 67%. Moreover, the “PRNT IC50, VACV EV+C'” value in the assay with VACV B5 protein [1] is 1 µg/mL. Besides, the 50% effective concentration (EC50) was 0.03 µg/mL with VACV B5 protein [2] and over 6 µg/mL with VACV B5 protein [3].

B6: VACV-128 (antibody, V domains shown)
VH: EVQLVQSGAEVKKPGATVKISCKVSGYTFTDYYMHWVQQAPGKGLKWMGLLDPLDGETIYSEKFQGKVTITADTSTDTAYMELSSLRSEDTAVYYCARELTGYLNYWGQGTLVTVSS
VL: DIQMTQSPSSLSASVGDRVTITCRASPGICNYLAWYQHKPGKVPKLLIYAASTLQSGVPSRFTGVGSGTNFTLTINNLPPENVATYYCQKYNSAPHTFGQGTKVDIK
notes: human IgG1, anti-D8
As to B6, the “PRNT Emax, VACV MV+C'” value with VACV D8 protein [4] was determined as 86%. In addition, the “PRNT IC50, VACV MV+C'” value in the assay with VACV D8 protein [4] worked out at 0.5 µg/mL. Also, the EC50 came out at 1.1 µg/mL with VACV D8 protein [5] and 0.3 µg/mL in the assay with VACV D8 protein [6].

B7: VACV-80 (antibody, V domains shown)
VH: EVQLVESGGGLVQPGESLKISCAATGFTFSSYWMHWVRQAPGKGLVWVSGINSDGSSTSYADSVKGRFTIARDNAKGTLYLQMNSLRAEDTAVYYCARVGAVRIAAAAPDYWGQGTLVTVSS
VL: not shown
notes: human IgG1, anti-A33
As for B7, the EC50 with VACV A33 protein [9] is 0.065 µg/mL; with VACV A33 protein [10], over 69 µg/mL.

B8: VACV-22 (antibody, V domains shown)
VH: QVQLVESGGGVVQPGRSLRLSCAASGFTFSNSGMHWVRQAPGKGLEWVAVIWFDGTNKYYADSVKGRFTISRDNSKNTLYLQMNSLRAEDTAVYYCARVPCGGDCYSGYLQHWGQGTLVTVSS
VL: AIVMTQSPATLSVSPGERATLSCRASQSVSSTLAWYQQKPGQAPRLLIYGASTKATGIPARFSGSGSGTEFTLTISSLQSEDFAVYYCQHYNNWPPLLTFGGGTKVDIK
notes: human IgG1, anti-A33
B8: in the assay with VACV A33 protein [11], the “PRNT Emax, VACV EV+C'” value is 87% and the “PRNT IC50, VACV EV+C'” value turned out to be 9.7 µg/mL. For the same molecule, in the assay with VACV A33 protein [9], the EC50 amounted to 0.03 µg/mL. The same molecule yielded an EC50 with VACV A33 protein [10] of over 0.008 µg/mL.

B9: VACV-34 (antibody, V domains shown)
VH: QVQLVESGGGLVQPGRSLRLSCAASGFTFDDYAMHWVRQAPGKGLEWVSGLSWNSGSIGYADSVKGRFTISRDNAKNSLYLQMNSLRAEDTALYYCAKETEKYYYDSSGYDYWGQGTLVTVSS
VL: EIVLTQSPGTLSLSPGERATLSCRASQSVSSIYLAWYQQKPGQAPRLLIYGASSRATGIPDRFSGSGSGTDFTLTISRLEPEDFAVYYCQQYGSRGTFGQGTKLEIK
notes: human IgG1, anti-L1
As for B9, in the assay with VACV L1 protein [7], the “PRNT Emax, VACV MV” value amounted to 76%; the “PRNT Emax, VACV MV+C'” value was 78%; the “PRNT IC50, VACV MV” value was 3.3 µg/mL; the “PRNT IC50, VACV MV+C'” value came out at 0.96 µg/mL. In the assay with VACV L1 protein [8], this molecule returned an EC50 of 0.04 µg/mL.

B10: MPXV-76 (antibody, V domains shown)
VH: EVQLVESGGGLVKPGESLKISCAASGFSFNNAWMNWVRQAPGKGLEWVGRIKTHADGGTTDYAAPVTGRFTISRDDSKNTLSLQMSSLKTEDTAVYYCTTSFTFPRRIFAYWGQGTLV
VL: EIVLTQSPATLSLSPGERATLSCRASQSVSSYLAWYQQKPGQAPRLLIYDTSNRATGIPARFSGSGSGTDFTLTISSLEPEDLAVYYCQLRNSWPPTFGPGTKVDIK
notes: human IgG1, anti-H3
As to B10, the midpoint of the response in the assay with VACV H3 protein, the EC50, lay at 0.008 µg/mL.

B11: MPXV-51 (antibody, V domains shown)
VH: QLQLQESGPGLVKPSETLSLSCTVSGGSINSRTYYWGWIRQPPGKGPEWIGTVFHNVSTLYTSSLRSRVTISVDTSKNRFSLKLTSVTAADTAVYFCGRLTPRNLFRGTLVRWVDPWGQGILVTVSS
VL: EIVLAQSPGTLSLSPGERATLSCRASHNLNSNYLAWYQQKPGQAPRLLIYGASSRATGIPDRFTGSGSGTDFTLTISRLEPEDFAVYYCQQYAGSLTFGGGTKVDIK
notes: human IgG1, anti-A33
B11: in the assay with VACV A33 protein [11], the “PRNT Emax, VACV EV+C'” value was 50% and the “PRNT IC50, VACV EV+C'” value came to 0.1 µg/mL. Further, the EC50 with VACV A33 protein [9] came to 0.04 µg/mL. It took 0.05 µg/mL to reach a half-maximal effect in the assay with VACV A33 protein [10] (EC50).

B12: MPXV-56 (antibody, V domains shown)
VH: QVQLQQSGPGLVKPSQTLSLTCAISGDSVSSNSAAWIWIRQSPSRGLEWLGTTYYRSEWYSDYPASVKSRVTINADTSKNQFSLQLNSVTPEDTAVYYCARITVGYNSPHLRVTRGWLDPWGPGNP
VL: not shown
notes: human IgG2, anti-A33
Regarding B12, in the assay with VACV A33 protein [11], the “PRNT Emax, VACV EV+C'” value came out at 56% and the “PRNT IC50, VACV EV+C'” value is 0.16 µg/mL. This molecule gave an EC50 with VACV A33 protein [9] of 0.06 µg/mL. This molecule also gave an EC50 with VACV A33 protein [10] of over 0.07 µg/mL.
